# Assay results: patent US20210180062
Substance,"GAP activity (reduction of GTP-bound small G protein, pull-down with effector-domain beads) (Ras)","GAP activity (reduction of GTP-bound small G protein, pull-down with effector-domain beads) (Rac1)","GAP activity (reduction of GTP-bound small G protein, pull-down with effector-domain beads) (Rap1)"
SynGAP α1 (isoform construct co-transfected in the small GTPase assay),SynGAP α1 and α2 has mild preference towards Ras rather than Rap,–,–
SynGAP α2 (isoform construct co-transfected in the small GTPase assay),SynGAP α1 and α2 has mild preference towards Ras rather than Rap,–,–
SynGAP β (isoform construct co-transfected in the small GTPase assay),SynGAP β generally has highest GAP activity into all small G proteins among other isoforms,SynGAP β generally has highest GAP activity into all small G proteins among other isoforms,–
SynGAP γ (isoform construct co-transfected in the small GTPase assay),–,–,SynGAP β and γ has mild preference towards Rap1
